The record followed here is US20260109763A1 (DENALI THERAPEUTICS, published 2026).

To fix the notation:
T1: hNPDC1(35-181) (human, UniProt Q9NQX5 35-181)
T1 construct: range 35-181; also called neural proliferation differentiation and control protein 1
T1 sequence (looked up): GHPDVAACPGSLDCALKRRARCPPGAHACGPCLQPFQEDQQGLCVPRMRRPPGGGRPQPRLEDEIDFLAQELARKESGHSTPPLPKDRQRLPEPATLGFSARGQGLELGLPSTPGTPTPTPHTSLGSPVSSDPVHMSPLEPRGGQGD

T2: hPANP(76-178) (human, UniProt Q8IYJ0 76-178)
T2 construct: range 76-178; also called PIANP; PILRA-associated neural protein
T2 sequence (looked up): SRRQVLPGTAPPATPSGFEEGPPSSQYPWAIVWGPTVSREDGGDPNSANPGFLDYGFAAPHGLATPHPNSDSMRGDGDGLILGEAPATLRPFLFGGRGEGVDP

B1: PILRB binding positive control antibody (antibody, human IgG1, kappa, L234A L235A, V domains shown)
VH: QVQLQESGPGLVKPSGTLSLTCAVSGGSISSNHWWSWVRQPPGKGLEWIGEIYHYGTTDYNPSLQSRVTISVDKSKNQFSLKLTSVTAADTAVYFCARGLRDYYYYMDVWGKGTTVTVSS
VL: DIQMTQSPSSLSASVGDRVTITCRASQTISSYLNWYQQKPGKAPKLLIYAASSLQSGVPSRFSGSGFGTDFTLTISSLQPEDFATYYCQQSYSIPLTFGGGTKVEIKR
B2: Anti-PILRA antibody clone 2 (antibody, human IgG1, kappa, L234A L235A, V domains shown)
VH: EVQLVESGGGLVQPGRSLRLSCAVSGFTFDDYAMHWVRQAPGKGLEWVSGFSWNSGSIGYPDSVKGRFTISRDNAKNSLYLQMNSLRAEDTAFYYCAKDKSISAAGRFDYWGQGTLVTVSS
VL: DIQMTQSPSSLSASVGDRVTITCQASRRINNYLNWYQQKPGKAPKLLIYDASNLETGVPSRFTGSGSGTDFTLTISSLQPEDIATYYCQQYDNLPLTFGGGTKVEIKR
notes: also called Ab; Clone 2; Ab.2
B3: human PILRA G78 extracellular domain (recombinant hPILRA ECD) (receptor)
chain: QPSGSTGSGPSYLYGVTQPKHLSASMGGSVEIPFSFYYPWELATAPDVRISWRRGHFHGQSFYSTRPPSIHKDYVNRLFLNWTEGQKSGFLRISNLQKQDQSVYFCRVELDTRSSGRQQWQSIEGTKLSITQAVTTTTQRPSSMTTTWRLSSTTTTTGLRVTQGKRRSDSWHISLETA
notes: also called hPILRA G78
B4: Anti-PILRA antibody clone 35 (antibody, V domains shown)
VH: EVQLVQSGAEVKKPGASVKVSCKASGYTFTEYYMYWVRQAPGQGLELIGRIDPEDGGTDYVEKFKNRATLTADTSTSTAYLELSSLRSEDTAVYFCASTIRGTVFVYWGQGTLVTVSS
VL: DIQMTQSPSSLSASVGDRVTITCRPSEDIYNGLAWYQQKPGKSPKLLIYNANSLHTGVPSRFSGSGSGTDYTLTISSLQPEDFATYFCQQYYDYPLTFGQGTKVEIK
notes: Humanized; also called Ab.35
B5: Anti-PILRA antibody clone 7 (antibody, V domains shown)
VH: EVQLQQSGPELQRPGASVKLSCKASGYTFTEYYMYWVKQRPKQGLELMGRIDPEDGGTDYVEKFKNKATLTADTSSNTAYMQLSSLTSEDTATYFCASTIRGTVFVYWGQGTLVTVSS
VL: DIQMTQSPASLSASLGETVTIECRPSEDIYNGLAWYQQKPGESPQLLIYNANSLHTGVPSRFSGSGSGTQYSLKINSLQSEDVASYFCQQYYDYPLTFGSGTKLEIK

One assay has as its target T3, human PILRB on cells (human, UniProt Q9UKJ0 20-227).
T3 construct: Expressed on CHO-K1 cells, or together with DAP12 on HEK293 cells (hPILRB-DAP12 OE HEK293); also called hPILRB; hPILRB-DAP12
Description: flow cytometry on hPILRB-DAP12 OE HEK293 cells. (In general: Flow cytometry measures light scatter and fluorescence of single cells or particles in a stream.)

In assay [1] the target is T4, human PILRA G78 on cells (human, UniProt Q9UKJ1 20-303).
T4 construct: wild-type iMicroglia are R78/G78 heterozygous (said in the assay field); also called hPILRA; hPILRA G78
The experiment in a line: flow cytometry on HEK293 cells expressing hPILRA G78.
Target sequence in this assay (Q9UKJ1 20-303 R78G limits assumed): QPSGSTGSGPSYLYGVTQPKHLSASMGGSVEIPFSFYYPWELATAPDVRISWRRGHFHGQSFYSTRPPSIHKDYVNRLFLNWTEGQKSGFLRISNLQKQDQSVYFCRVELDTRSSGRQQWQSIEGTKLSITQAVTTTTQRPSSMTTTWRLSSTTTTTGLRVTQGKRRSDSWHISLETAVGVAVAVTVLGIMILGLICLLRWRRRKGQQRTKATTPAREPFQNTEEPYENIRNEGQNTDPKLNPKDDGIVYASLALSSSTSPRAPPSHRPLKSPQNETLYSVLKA
Description: Parental HEK293 cells were labeled with NucBlue Live ReadyProbes Reagent for 30 mins. […] Antibody binding to the cells was detected by FACS and median fluorescence intensity (MFI) was derived from data analysis performed with the FLOJO software (FIGS. 1A-1C).

Assay [2] deals with T5, human PILRA R78 on cells (human, UniProt Q9UKJ1 20-303).
T5 construct: also called hPILRA R78; PILRA 78R
Description: flow cytometry on PILRA R78 expressing HEK293 cells (FIG. 1F); flow cytometry titration on HEK293 cells overexpressing PILRA R78.
Description: (§1) PILRA G78 or R78 overexpressing HEK293 cells were stained with NucBlue Live cell stain for 30 mins at RT. […] Cell lines were run in duplicate to account for intra-variability, for a total of N=3. The same protocol was used for CHO-K1 cells expressing hPILRA G78.

Assay [3] concerns the target T6, human PILRA R78 extracellular domain (recombinant) (human, UniProt Q9UKJ1 20-197).
T6 construct: also called hPILRA R78
The experiment in a line: SPR, Biacore 8K; antibody captured via anti-human Fab, recombinant ECD injected; 1:1 fit.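 Note: CM5 sensor chip, ECD analyte in threefold dilution series at 30 µL/min, 3 min association and 10 min dissociation, kon and koff fitted simultaneously.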 Background: In SPR one partner is held on a chip, and binding of the other changes the refractive index at the surface.
Description: (§2) Antibodies were captured on Biacore™ Series S CM5 sensor chips immobilized with mouse anti-human Fab (human Fab capture kit from GE Healthcare) followed by injections of serial 3-fold dilutions of recombinant ECD reagents at a flow rate of 30 μL/min. Each sample was analyzed using a 3-minute association followed by a 10-minute dissociation. After each injection, the sensor chip was regenerated using a 5 0 mM glycine pH2.0 regeneration buffer. A 1:1 Languir model of simultaneous fitting of kₒₙ and koff was used for kinetics analysis.

The target of assay [4] is T7, cynomolgus monkey PILRA extracellular domain (recombinant) (cynomolgus monkey).
T7 construct: also called cynoPILRA; Cyno PILRA
The description is as above.
Description: as §2

Assay [5] has as its target B3. Described as above.
Description: as §2
Assay [6] addresses T4, human PILRA G78 on cells. Description: cell-based or functional assay.
Target sequence in this assay (Q9UKJ1 20-303 R78G limits assumed): as above
The target of assay [7] is T8, human PILRB extracellular domain (recombinant) (human, UniProt Q9UKJ0 20-191).
T8 construct: also called hPILRB
The experiment in a line: SPR, Biacore 8K, recombinant ECD.
Description: as §2

A further assay deals with T1, hNPDC1(35-181). The experiment in a line: SPR (Biacore 8K): ligand injected over hPILRA ECD (300 nM) held by an anti-PILRA antibody captured on anti-human Fab; panel Ligand binding permitted, antibody not named.
The next assay deals with T2, hPANP(76-178). The description is as above.
Assay [8] has as its target T5, human PILRA R78 on cells. The experiment in a line: cell-based or functional assay.
Target sequence in this assay (Q9UKJ1 20-303 limits assumed): as the sequence (Q9UKJ1 20-303 R78G limits assumed) above, with G59R counted along it
The target in assay [9] is T4, human PILRA G78 on cells. The experiment in a line: flow cytometry on HEK293 cells expressing hPILRA G78. The source holds these as a separate data set.
Target sequence in this assay (Q9UKJ1 20-303 R78G limits assumed): as the sequence (Q9UKJ1 20-303 R78G limits assumed) above
Assay [10] addresses B3. Description: SPR, Biacore 8K; hPILRA ECD; antibody with wild-type Fc.
Description: as §2
Characterization for binding affinities of the humanized antibodies to hPILRA ECD were measured by SPR using a Biacore 8K instrument (Table 7).
Assay [11] deals with T5, human PILRA R78 on cells. Description: flow cytometry on PILRA R78 expressing HEK293 cells (FIG. 1F).
Description: as §1
In assay [12] the target is T4, human PILRA G78 on cells. The experiment in a line: flow cytometry (MFI), CHO-K1 cells expressing hPILRA G78, Alexa Fluor 647 anti-human IgG.
Description: as §1
The target of assay [13] is T4, human PILRA G78 on cells. The experiment in a line: cell-based or functional assay. The source holds these as a separate data set.
Target sequence in this assay (Q9UKJ1 20-303 R78G limits assumed): as above
Assay [14] has as its target T6, human PILRA R78 extracellular domain …. The experiment in a line: SPR.
Target sequence in this assay (Q9UKJ1 20-197 limits assumed): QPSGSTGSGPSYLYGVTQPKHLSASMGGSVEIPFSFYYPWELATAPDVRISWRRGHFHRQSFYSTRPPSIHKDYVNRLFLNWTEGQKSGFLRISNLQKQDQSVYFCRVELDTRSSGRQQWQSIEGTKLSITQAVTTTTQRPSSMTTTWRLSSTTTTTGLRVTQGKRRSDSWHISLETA
In assay [15] the target is T7, cynomolgus monkey PILRA extracellular …. The experiment in a line: SPR.
Assay [16] addresses B3. Description: SPR.
Assay [17] deals with T8, human PILRB extracellular domain …. Description: SPR.
The target in assay [18] is T5, human PILRA R78 on cells. The experiment in a line: flow cytometry on HEK293 PILRA R78 cells without sialidase treatment; without sialidase treatment.
Target sequence in this assay (Q9UKJ1 20-303 limits assumed): as the sequence (Q9UKJ1 20-303 R78G limits assumed) above, with G59R counted along it
Description: (§3) PILRA 78G or PILRA 78R expressing HEK293 cells were treated with SialEXO (Genovis). […] It is a combination of two sialidases acting on α2-3, α2-6 and α2-8 linkages. […] Cells were then washed twice and incubated and stained with NucBlue Live Stain for 30 mins at RT.
(§4) Following the same protocol, sialidase treatment was also performed on HEK cells expressing PILRA R78.
In assay [19] the target is T4, human PILRA G78 on cells. The experiment in a line: flow cytometry on PILRA G78 expressing CHO-K1 cells (FIG. 1H).
Target sequence in this assay (Q9UKJ1 20-303 R78G limits assumed): as the sequence (Q9UKJ1 20-303 R78G limits assumed) above
Description: as §1
In assay [20] the target is T8, human PILRB extracellular domain …. The experiment in a line: SPR, Biacore 8K; antibody captured via anti-human Fab, recombinant ECD injected; 1:1 fit.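 Note: CM5 sensor chip, ECD analyte in threefold dilution series at 30 µL/min, 3 min association and 10 min dissociation, kon and koff fitted simultaneously.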
Description: as §2
Assay [21] addresses T5, human PILRA R78 on cells. Description: flow cytometry on PILRA R78 expressing HEK293 cells (FIG. 1F); HEK293 cells expressing PILRA R78.
Target sequence in this assay (Q9UKJ1 20-303 limits assumed): as the sequence (Q9UKJ1 20-303 R78G limits assumed) above, with G59R counted along it
Description: as §1
Assay [22] has as its target T4, human PILRA G78 on cells. Description: flow cytometry on PILRA G78 expressing HEK293 cells (FIG. 1D); HEK293 cells expressing PILRA G78.
Description: as §1
Assay [23] addresses T4, human PILRA G78 on cells. The experiment in a line: flow cytometry on HEK293 PILRA G78 cells without sialidase treatment.
Description: as §3
Assay [24] deals with T4, human PILRA G78 on cells. The experiment in a line: flow cytometry on HEK293 PILRA G78 cells with sialidase treatment.
Description: as §3
Assay [25] deals with T5, human PILRA R78 on cells. The experiment in a line: flow cytometry on HEK293 PILRA R78 cells with sialidase treatment; with sialidase treatment.
Target sequence in this assay (Q9UKJ1 20-303 limits assumed): as the sequence (Q9UKJ1 20-303 R78G limits assumed) above, with G59R counted along it
Description: as §3, §4

Read-outs that look alike come from different tables or passages of the source.

T8 sequence (Q9UKJ0 20-191 limits assumed): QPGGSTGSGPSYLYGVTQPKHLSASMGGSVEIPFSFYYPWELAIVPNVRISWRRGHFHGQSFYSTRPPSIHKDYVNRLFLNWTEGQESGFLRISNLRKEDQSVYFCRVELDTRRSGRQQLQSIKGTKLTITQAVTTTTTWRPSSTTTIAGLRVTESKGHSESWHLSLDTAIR
T7 sequence (chain, as listed by the source limits assumed): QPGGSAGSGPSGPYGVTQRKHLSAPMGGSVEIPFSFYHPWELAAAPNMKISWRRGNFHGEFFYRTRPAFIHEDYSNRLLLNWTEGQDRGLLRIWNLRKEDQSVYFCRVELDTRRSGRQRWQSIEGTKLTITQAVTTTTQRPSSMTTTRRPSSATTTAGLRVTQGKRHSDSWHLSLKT
T3 sequence (Q9UKJ0 20-227 limits assumed): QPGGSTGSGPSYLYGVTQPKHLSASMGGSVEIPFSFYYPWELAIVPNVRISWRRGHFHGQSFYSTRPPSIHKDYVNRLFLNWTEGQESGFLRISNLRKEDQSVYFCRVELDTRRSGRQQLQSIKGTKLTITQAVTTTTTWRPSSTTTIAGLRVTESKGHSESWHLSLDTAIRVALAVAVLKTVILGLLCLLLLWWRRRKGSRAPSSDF
Description for human PILRB on cells: Human PILRB-DAP12 OE HEK293 cells were stained with NucBlue Live cell stain for 30 mins at RT. […] Cell lines were run in duplicates to account for intra-variability, for a total of N=3.

By EC50 is commonly meant the concentration that produces a half-maximal response. Consider B1, for which the midpoint of the response with human PILRB on cells, the EC50, lay at 1.2 nM.

As a reminder, the Kd is a measure of binding affinity in units of concentration. Take B2: the half-maximal effective concentration (EC50) with human PILRA G78 on cells [1] amounted to 12.5 nM; with human PILRA R78 on cells [2], 5.1 nM. The Kd in assay [3] was 270 nM; in assay [4] it was 1.7 nM; in assay [5], 0.69 nM. Besides, the “pSTAT3 Y705 induction, EC50 (nM)” value with human PILRA G78 on cells [6] amounted to 1.45 nM. Moreover, the “pSTAT3 Y705 induction, Fold Over Background” value with human PILRA G78 on cells [6] is 16 fold. Also, the binding result in assay [7] is “no binding”.

For the molecule B3, the binding result with hNPDC1(35-181) and in the assay with hPANP(76-178) was “binds” in each case.

As usually defined, the EC50 (read off the curve) is the concentration needed to bring the measured effect to its halfway point. On to B4, for which the “pSTAT3 S727 induction, EC50 (nM)” value with human PILRA R78 on cells [8] is 10.6 nM; with human PILRA G78 on cells [13] it was 23 nM. For the same molecule, the “pSTAT3 S727 induction, Fold Over Background” value in the assay with human PILRA R78 on cells [8] was found to be 30.1 fold; in the assay with human PILRA G78 on cells [13], 28.9 fold. In addition, the “pSTAT3 Y705 induction, EC50 (nM)” value with human PILRA R78 on cells [8] stood at 6.19 nM; in the assay with human PILRA G78 on cells [13], 11.4 nM. For the same molecule, the “pSTAT3 Y705 induction, Fold Over Background” value with human PILRA R78 on cells [8] came out at 41 fold; with human PILRA G78 on cells [13], 35.5 fold. Also, the concentration for a half-maximal effect (EC50) with human PILRA G78 on cells [9] worked out at 12.8 nM; with human PILRA R78 on cells [11] it was 3.1 nM. The equilibrium dissociation constant (Kd) was found to be 1.71 nM in [10]; 25 nM in assay [14]; 5.3 nM in assay [15]; 1.4 nM in assay [16]; 150 nM in [17]. For the same molecule, the “EC50 (read off the curve)” value with human PILRA G78 on cells [12] is around 10 nM.

In the case of B5, the EC50 in the assay with human PILRA R78 on cells [18] stood at 0.7 nM; in the assay with human PILRA G78 on cells [19], 10 nM; with human PILRA G78 on cells [1], 13 nM; in the assay with human PILRA R78 on cells [21], 2.5 nM; with human PILRA G78 on cells [22], 12.9 nM; with human PILRA G78 on cells [23], 9.5 nM. Moreover, the values for the EC50 with human PILRA G78 on cells [24] and with human PILRA R78 on cells [25] were 3.2 nM and 0.3 nM, respectively. Moreover, the “pSTAT3 S727 induction, EC50 (nM)” value came out at 10.7 nM with human PILRA R78 on cells [8] and 18.6 nM with human PILRA G78 on cells [13]. The “pSTAT3 S727 induction, Fold Over Background” value turned out to be 28.9 fold in the assay with human PILRA R78 on cells [8] and 26.6 fold with human PILRA G78 on cells [13]. Moreover, the “pSTAT3 Y705 induction, EC50 (nM)” value amounted to 5.38 nM in the assay with human PILRA R78 on cells [8] and 13 nM in the assay with human PILRA G78 on cells [13]. Moreover, the “pSTAT3 Y705 induction, Fold Over Background” value is 38.3 fold in the assay with human PILRA R78 on cells [8] and 32.5 fold with human PILRA G78 on cells [13]. Also, the dissociation constant Kd in [3] stood at 17 nM; in assay [4], 4.8 nM; in [5] it was 1.2 nM; in assay [20] it was 250 nM.
